Literature values in article PMC10366146.

Biological target: VEGFR2 (Homo sapiens) (UniProt P35968)
Sequence of UniProt P35968 (P35968 20-1356): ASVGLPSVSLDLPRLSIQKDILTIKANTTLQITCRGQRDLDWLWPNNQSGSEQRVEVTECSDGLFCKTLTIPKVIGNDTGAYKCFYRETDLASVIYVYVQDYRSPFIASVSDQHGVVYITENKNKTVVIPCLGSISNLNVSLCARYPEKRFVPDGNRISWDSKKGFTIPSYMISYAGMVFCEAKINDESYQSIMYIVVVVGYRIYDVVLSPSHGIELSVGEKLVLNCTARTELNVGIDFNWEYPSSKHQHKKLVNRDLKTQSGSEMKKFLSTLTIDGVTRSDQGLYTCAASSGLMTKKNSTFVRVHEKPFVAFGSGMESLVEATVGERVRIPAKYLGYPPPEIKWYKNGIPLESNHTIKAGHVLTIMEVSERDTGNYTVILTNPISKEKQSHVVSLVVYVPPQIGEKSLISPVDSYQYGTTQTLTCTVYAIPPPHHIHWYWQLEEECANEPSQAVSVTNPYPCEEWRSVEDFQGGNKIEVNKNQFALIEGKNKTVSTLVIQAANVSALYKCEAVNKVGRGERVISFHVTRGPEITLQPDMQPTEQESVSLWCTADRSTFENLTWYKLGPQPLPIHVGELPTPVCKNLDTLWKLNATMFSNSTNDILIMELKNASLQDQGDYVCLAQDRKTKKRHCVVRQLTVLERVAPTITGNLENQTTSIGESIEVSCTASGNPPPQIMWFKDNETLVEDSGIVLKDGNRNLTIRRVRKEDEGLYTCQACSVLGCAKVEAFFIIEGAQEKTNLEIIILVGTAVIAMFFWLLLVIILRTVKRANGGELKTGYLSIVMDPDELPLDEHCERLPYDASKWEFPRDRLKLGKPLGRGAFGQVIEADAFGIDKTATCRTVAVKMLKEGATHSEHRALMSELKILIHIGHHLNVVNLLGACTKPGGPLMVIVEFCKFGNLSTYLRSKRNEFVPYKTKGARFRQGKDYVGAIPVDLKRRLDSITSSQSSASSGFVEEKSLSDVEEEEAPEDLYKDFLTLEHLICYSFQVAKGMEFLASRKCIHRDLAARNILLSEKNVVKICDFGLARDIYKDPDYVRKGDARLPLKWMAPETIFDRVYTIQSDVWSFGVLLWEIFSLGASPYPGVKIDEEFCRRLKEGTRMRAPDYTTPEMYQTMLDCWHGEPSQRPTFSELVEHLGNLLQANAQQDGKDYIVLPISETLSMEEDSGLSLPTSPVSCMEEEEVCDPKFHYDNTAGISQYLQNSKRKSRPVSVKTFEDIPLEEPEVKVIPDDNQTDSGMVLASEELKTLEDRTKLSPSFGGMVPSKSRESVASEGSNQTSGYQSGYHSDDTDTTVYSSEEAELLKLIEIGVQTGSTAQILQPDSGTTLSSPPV

- Kd: 5.5 nM
Substance: VEGF121 VEGF121 (from UniProt P15692)
